Assay results from patent US20190154677.
Where two headings read alike, the source gives them in different places.

Legend:
[1] = molecular target: Hepatitis B surface antigen (HBs Ag) (Hepatitis B virus) (UniProt P03141); settings: magnetic bead pulldown with q-PCR, BD buffer, room temperature
[2] = molecular target: Hepatitis B surface antigen (HBs Ag) (Hepatitis B virus) (UniProt P03141); settings: magnetic bead pulldown with q-PCR, BD buffer, room temperature; remark: listed apart in the source

Hepatitis B surface antigen (HBs Ag) (Hepatitis B virus), sequence (P03141 175-400): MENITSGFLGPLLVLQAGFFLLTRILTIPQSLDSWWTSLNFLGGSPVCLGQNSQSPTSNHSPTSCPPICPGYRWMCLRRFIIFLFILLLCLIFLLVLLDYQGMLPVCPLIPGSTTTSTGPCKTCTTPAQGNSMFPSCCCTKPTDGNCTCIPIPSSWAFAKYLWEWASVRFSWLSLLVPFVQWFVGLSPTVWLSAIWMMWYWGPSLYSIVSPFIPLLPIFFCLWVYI

| Sequence | Kd [1] | Kd [2] |
| --- | --- | --- |
| AGCAGCACAGAGGTCCCAACCGGAATCTGCACCTCGCGTGCTACCGTGAA [K2-4] | 0.0314 µM | – |
| AGCAGCACAGAGGTCCTGCATCACGAAGCCTGGCAGCGTGCTACCGTGAA [MP-1] | – | 0.0283 µM |
